Results from publication PMC8158037.

Biological target: δ-toxin (secreted by S. aureus MW2 and its ΔPSMα strain) (Staphylococcus aureus MW2)
Assay: AUC + SEC-MALS + native MS + cross-linking

## δ-toxin (secreted by S. aureus MW2 and its ΔPSMα strain) (peptide)
  stoichiometry N: 8
